PMC8123688, “In Vivo Imaging of Thyroid Cancer with ^99mTc-TR1401 and ^99mTc-TR1402: A Comparison Study in Dogs” (Journal of Clinical Medicine, 2021)

Target: T1, TSH receptor (TSHR) on human ML-1 cells (human (endogenous in ML-1), UniProt P16473 21-764)
T1 construct: thyrotropin receptor (TSHR) expressed on the TSHR-positive human thyroid cancer cell line ML-1; also called TSH receptors; source: endogenous, on human ML-1 cells
Assay: radioligand binding; real-time kinetic binding assay with LigandTracer; 10^6 ML-1 cells seeded in a tilted Petri dish; 2 mL of 30 nM radiolabeled ligand in culture medium for 1 h, then medium without ligand to follow release; Kd from binding/release curve (GraphPad Prism)
Conditions: one partner purified

T1 sequence (P16473 21-764): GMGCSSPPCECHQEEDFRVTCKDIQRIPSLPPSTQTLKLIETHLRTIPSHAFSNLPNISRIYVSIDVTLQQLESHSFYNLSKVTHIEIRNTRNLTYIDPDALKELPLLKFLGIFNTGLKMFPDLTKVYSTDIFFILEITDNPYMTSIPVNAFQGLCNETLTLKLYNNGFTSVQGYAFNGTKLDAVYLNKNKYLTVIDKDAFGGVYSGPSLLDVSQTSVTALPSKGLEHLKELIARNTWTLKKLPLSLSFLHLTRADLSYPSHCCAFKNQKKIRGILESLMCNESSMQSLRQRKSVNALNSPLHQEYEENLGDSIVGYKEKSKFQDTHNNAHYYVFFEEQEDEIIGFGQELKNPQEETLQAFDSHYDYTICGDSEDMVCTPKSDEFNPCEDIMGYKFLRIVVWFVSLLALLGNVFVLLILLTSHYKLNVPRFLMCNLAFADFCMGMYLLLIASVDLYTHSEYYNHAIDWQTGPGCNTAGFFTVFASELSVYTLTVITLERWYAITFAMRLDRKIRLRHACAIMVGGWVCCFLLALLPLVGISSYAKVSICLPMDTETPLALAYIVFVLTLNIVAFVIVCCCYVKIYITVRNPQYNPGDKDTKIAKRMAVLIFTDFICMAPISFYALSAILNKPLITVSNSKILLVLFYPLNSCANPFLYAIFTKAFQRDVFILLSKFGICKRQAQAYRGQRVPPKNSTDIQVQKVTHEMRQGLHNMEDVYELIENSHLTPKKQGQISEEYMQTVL

- Kd: 8.4 nM
B1: 99mTc-Thyrogen, radiolabeled recombinant human TSH (Thyrogen) (ligand)
chain 1: not shown
chain 2: FCIPTEYTMHIERRECAYCLTINTTICAGYCMTRDINGKLFLPKYALSQDVCTYRDFIYRTVEIPGCPLHVAPYFSYPVALSCKCGKCNTDYSDCIHEAIKTNYCTKPQKSY
modifications: technetium-99m label (sites and chain not stated) | technetium-99m label (sites and chain not stated)
notes: glycoprotein hormones alpha chain (alpha subunit of TSH), human; recombinant human TSH (Thyrogen), so named in the abstract; thyrotropin (TSH) beta subunit, human; Thyrogen is a drug product; also called rhTSH; radiolabeled human recombinant TSH
